Data: the supplement of paper PMC7877785
± gives the uncertainty stated by the source.

Assay: self-splicing fitness, log relative to wild type (ln ratio); higher = more splicing; Tetrahymena group I intron in knt gene, E. coli kanamycin selection, DiMSum; sequences stand for … in CUCUCU…GGAGGGAAAAGUUAUCAGGCAUGCACCUGGUAGCUAGUCUUUAAACCAAUAGAUUGCAUCGGUUUAAAAGGCAAGACCGUCAAAUUGCGGGAAAGGGGUCAACAGCCGUUCAGUACCAAGUCUCAGGGGAAACUUUGAGAUGGCCUUGCAAAGGGUAUGGUAAUAAGCUGACGGACAUGGUCCUAACCACGCAGCCAAGUCCUAAGUCAACAGAUCUUCUGUUGAUAUGGAUGCAGUUCACAGACUAAAUGUCGGUCGGGGAAGAUGUAUUCUUCUCAUAAGAUAUAGUCGGACCUCUCCUUAAUGGGAGCUAGCGGAUGAAGUGAUGCAACACUGGAGCCGCUGGGAACUAAUUUGUAUGCGAAAGUAUAUUGAUUAGUUUUGGAGUACUCGUGGUCG
How it was run: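 Library with all eight P1ex-region intron nucleotides randomised, intron inside the knt kanamycin-resistance gene on pET-22b(+), in E. coli BL21(DE3). Cells grew overnight at 37°C or 30°C on LB agar with or without 25 μg/mL kanamycin (plus 100 μg/mL carbenicillin, 50 μM IPTG, 0.2% rhamnose), in six replicate transformations. Pooled colonies were amplicon-sequenced on Illumina HiSeq 2500. DiMSum fitness is the error-weighted combination of wild-type-normalised replicate fold changes, kanamycin versus none.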

Sequence | self-splicing fitness (ln) (30 °C) | self-splicing fitness (ln) (37 °C)
AACGAGCAAUAUUACGCUAA | -3.19 ± 0.35 | -2.33 ± 0.16
CAGAAGCAAUAUUACGUGAC | -3 ± 0.22 | -2.18 ± 0.21
GCCAAGCAAUAUUACGAAAU | -3.24 ± 0.19 | -2.28 ± 0.18
AUUGAGCAAUAUUACGGUGU | -1.92 ± 0.15 | -2.31 ± 0.37
CAACAGCAAUAUUACGUUUG | -3.3 ± 0.077 | -2.11 ± 0.094
GUUGAGCAAUAUUACGUCCU | -1.27 ± 0.17 | -1.47 ± 0.21
CUUGAGCAAUAUUACGGACA | -2.41 ± 0.37 | 
GGCCAGCAAUAUUACGGUAG | -0.883 ± 0.063 | 0.303 ± 0.083
CGUGAGCAAUAUUACGUUAC | -3.96 ± 0.43 | 
GCGGAGCAAUAUUACGCCUC | -3.43 ± 0.38 | -1.06 ± 0.36
AUAGAGCAAUAUUACGGGUG | -3.22 ± 0.24 | -2.58 ± 0.26
GCUAAGCAAUAUUACGUCAU | -1.7 ± 0.095 | 0.727 ± 0.12
CCCGAGCAAUAUUACGCAAU | -3.57 ± 0.25 | -2.94 ± 0.29
CAGGAGCAAUAUUACGAUAG | -1.19 ± 0.12 | -0.223 ± 0.13
UUUGAGCAAUAUUACGUUCU | -3.55 ± 0.32 | -2.58 ± 0.25
ACCAAGCAAUAUUACGGUGU | -3.43 ± 0.11 | -2.18 ± 0.11
CACUAGCAAUAUUACGAAUU | -2.88 ± 0.19 | -2.77 ± 0.23
AAUAAGCAAUAUUACGUUCC | -1.96 ± 0.14 | -1.48 ± 0.18
CCGAAGCAAUAUUACGGCAA | -3.61 ± 0.38 | -1.98 ± 0.38

Sequence | self-splicing fitness (ln) (30 °C) | self-splicing fitness (ln) (37 °C)
GCAGAGCAAUAUUACGUUCG | -1.91 ± 0.14 | -1.99 ± 0.3
CUGGAGCAAUAUUACGGGCG | -1.16 ± 0.12 | -0.434 ± 0.12
CUCAAGCAAUAUUACGACUG | -3.48 ± 0.17 | -1.7 ± 0.2
CUUGAGCAAUAUUACGGUGG | -2.55 ± 0.13 | -1.52 ± 0.12
CCACAGCAAUAUUACGCGCU | -4.48 ± 0.23 | -2.26 ± 0.15
GUAAAGCAAUAUUACGGCAU | -0.176 ± 0.067 | -0.287 ± 0.078
CCAAAGCAAUAUUACGGAGU | -2.7 ± 0.13 | -2.35 ± 0.2
UGUGAGCAAUAUUACGUACA | -1.04 ± 0.091 | -0.41 ± 0.1
CAGGAGCAAUAUUACGGCCA |  | 0.122 ± 0.3
CCAUAGCAAUAUUACGCCAA | -2.76 ± 0.43 | -1.58 ± 0.25
CAGCAGCAAUAUUACGGCUC | -0.127 ± 0.081 | -0.486 ± 0.099
AAGCAGCAAUAUUACGUCAU | -3.1 ± 0.14 | -1.76 ± 0.14
CGGAAGCAAUAUUACGAAUU | -3.28 ± 0.36 | -2.77 ± 0.44
ACGGAGCAAUAUUACGCCGA | -1.94 ± 0.25 | -1.49 ± 0.19
CCCAAGCAAUAUUACGUCGG | -3.63 ± 0.12 | -2.51 ± 0.14
CGAUAGCAAUAUUACGAAAU | -3.36 ± 0.28 | -2.5 ± 0.33
UUCGAGCAAUAUUACGAACU | -3.28 ± 0.32 | -0.827 ± 0.44
GUUAAGCAAUAUUACGCGAG | -0.369 ± 0.1 | -0.341 ± 0.14
CCAAAGCAAUAUUACGCAAG | -1.83 ± 0.12 | -1.52 ± 0.14
